Assay results reported in patent US20080305116A1 (published 2008).
Substitutions are numbered along the chain they refer to. In names and notes the source's numbering stands.

T1: human CD154, soluble antigen (human, UniProt P29965 116-261, limits assumed)
T1 construct: KinExA uses 'soluble antigen'; also called CD40 ligand; CD40L
T1 sequence (looked up): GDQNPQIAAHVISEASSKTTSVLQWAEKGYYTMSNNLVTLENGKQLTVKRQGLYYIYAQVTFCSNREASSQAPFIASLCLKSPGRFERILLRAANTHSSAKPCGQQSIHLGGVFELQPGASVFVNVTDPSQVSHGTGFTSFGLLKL

T2: CD154 on D1.1 cells (human, UniProt P29965 1-261)
T2 sequence (looked up): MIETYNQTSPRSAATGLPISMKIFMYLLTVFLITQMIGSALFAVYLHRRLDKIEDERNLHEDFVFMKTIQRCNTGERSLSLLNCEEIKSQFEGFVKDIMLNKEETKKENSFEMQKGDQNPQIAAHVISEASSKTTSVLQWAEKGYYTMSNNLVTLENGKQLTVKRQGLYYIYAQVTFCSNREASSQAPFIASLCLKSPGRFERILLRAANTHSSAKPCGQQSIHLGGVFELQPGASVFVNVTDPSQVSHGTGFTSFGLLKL

B1: 5c8 Fab Mutant #14 (light chain S26D/Q27E) (Fab, V domains shown)
VH: QVQLVQSGAEVVKPGASVKLSCKASGYIFTSYYMYWVKQAPGQGLEWIGEINPSNGDTNFNEKFKSKATLTVDKSASTAYMELSSLRSEDTAVYYCTRSDGRNDMDSWGQGTLVTVSS
VL: DIVLTQSPATLSVSPGERATISCRADERVSSSTYSYMHWYQQKPGQPPKLLIKYASNLESGVPARFSGSGSGTDFTLTISSVEPEDFATYYCQHSWEIPPTFGGGTKLEIK
notes: also called double mutant
B2: 5c8 Fab Mutant #21 (heavy T30H/Y33W/S54N; light S26D/Q27E) (Fab, V domains shown)
VH: B1 VH with T30H, Y33W, S54N
VL: B1 VL
B3: 5c8 Fab Mutant #18 (heavy T30H; light S26D/Q27E/T33W) (Fab, V domains shown)
VH: B1 VH with T30H
VL: B1 VL with T33W
B4: 5c8 Fab Mutant #27 (heavy Y33W/S54N; light S26D/Q27E/T33W) (Fab, V domains shown)
VH: B1 VH with Y33W, S54N
VL: B1 VL with T33W
B5: 5c8 Fab Mutant #4 (heavy chain S54N) (Fab, V domains shown)
VH: B1 VH with S54N
VL: B1 VL with D26S, E27Q
B6: 5c8 Fab Mutant #3 (light chain Y36W) (Fab, V domains shown)
VH: B1 VH
VL: B1 VL with D26S, E27Q, Y36W
B7: 5c8 Fab Mutant #28 (heavy Y33W/S54N; light S26D/Q27E) (Fab, V domains shown)
VH: B1 VH with Y33W, S54N
VL: B1 VL
B8: 5c8 Fab Mutant #6 (light chain S26D) (Fab, V domains shown)
VH: B1 VH
VL: B1 VL with E27Q
notes: also called Ser26Asp
B9: 5c8 Fab Mutant #23 (heavy Y33W; light S26D/Q27E) (Fab, V domains shown)
VH: B1 VH with Y33W
VL: B1 VL
B10: 5c8 Fab Mutant #22 (heavy T30H/Y33W/S54N; light S26D/Q27E/T33W) (Fab, V domains shown)
VH: B1 VH with T30H, Y33W, S54N
VL: B1 VL with T33W
B11: 5c8 Fab Mutant #5 (light chain T33W) (Fab, V domains shown)
VH: B1 VH
VL: B1 VL with D26S, E27Q, T33W
B12: 5c8 Fab Mutant #16 (heavy T30H; light S26D/Q27E) (Fab, V domains shown)
VH: B1 VH with T30H
VL: B1 VL
B13: 5c8 Fab Mutant #25 (heavy T30H/Y33W; light S26D/Q27E/T33W) (Fab, V domains shown)
VH: B1 VH with T30H, Y33W
VL: B1 VL with T33W
B14: 5c8 Fab Mutant #26 (heavy T30H/S54N; light S26D/Q27E/T33W) (Fab, V domains shown)
VH: B1 VH with T30H, S54N
VL: B1 VL with T33W
B15: 5c8 Fab Mutant #20 (heavy S54N; light S26D/Q27E/T33W) (Fab, V domains shown)
VH: B1 VH with S54N
VL: B1 VL with T33W
B16: 5c8 Fab Mutant #15 (light chain S26D/Q27E/T33W) (Fab, V domains shown)
VH: B1 VH
VL: B1 VL with T33W
B17: 5c8 Fab Mutant #17 (heavy Y33W; light S26D/Q27E/T33W) (Fab, V domains shown)
VH: B1 VH with Y33W
VL: B1 VL with T33W
B18: 5c8 Fab Mutant #2 (heavy chain Y33W) (Fab, V domains shown)
VH: B1 VH with Y33W
VL: B1 VL with D26S, E27Q
B19: 5c8 Fab Mutant #1 (heavy chain T30H) (Fab, V domains shown)
VH: B1 VH with T30H
VL: B1 VL with D26S, E27Q
B20: 5c8 Fab Mutant #24 (heavy T30H/Y33W; light S26D/Q27E) (Fab, V domains shown)
VH: B1 VH with T30H, Y33W
VL: B1 VL
B21: 5c8 Fab Mutant #19 (heavy S54N; light S26D/Q27E) (Fab, V domains shown)
VH: B1 VH with S54N
VL: B1 VL
B22: 5c8 Fab Mutant #7 (light chain Q27E) (Fab, V domains shown)
VH: B1 VH
VL: B1 VL with D26S
notes: also called Gln27Glu
B23: 5c8 Fab Mutant #8 (light chain S31V) (Fab, V domains shown)
VH: B1 VH
VL: B1 VL with D26S, E27Q, S31V
B24: 5c8 Fab Mutant #13 (heavy chain N59L) (Fab, V domains shown)
VH: B1 VH with N59L
VL: B1 VL with D26S, E27Q
notes: also called Asn59Leu
B25: 5c8 Fab Mutant #9 (light chain T33D) (Fab, V domains shown)
VH: B1 VH
VL: B1 VL with D26S, E27Q, T33D
B26: 5c8 Fab Mutant #11 (heavy chain Y33F) (Fab, V domains shown)
VH: B1 VH with Y33F
VL: B1 VL with D26S, E27Q
B27: 5c8 Fab Mutant #10 (light chain Y54E) (Fab, V domains shown)
VH: B1 VH
VL: B1 VL with D26S, E27Q, Y54E
notes: also called Tyr54Glu
B28: 5c8 Fab Mutant #12 (heavy chain N59D) (Fab, V domains shown)
VH: B1 VH with N59D
VL: B1 VL with D26S, E27Q
notes: also called Asn59Asp

Target: T1, human CD154, soluble antigen
Test: KinExA solution-phase equilibrium, Fab with soluble antigen

Binder | Kd
B1 | 0.041 nM
B2 | 0.101 nM
B3 | 0.054 nM
B4 | 0.052 nM
B5 | 0.298 nM
B6 | 0.42 nM
B7 | 0.077 nM
B8 | 0.142 nM
B9 | 0.053 nM
B10 | 0.055 nM
B11 | 0.158 nM
B12 | 0.07 nM
B13 | 0.012 nM
B14 | 0.063 nM
B15 | 0.044 nM
B16 | 0.044 nM
B17 | 0.023 nM
B18 | 0.169 nM
B19 | 0.307 nM
B20 | 0.052 nM
B21 | 0.065 nM
B22 | 0.081 nM

Target: T1, human CD154, soluble antigen
Test: assay not named in the sentence (the paragraph speaks of competitive ELISA)

Binder | fold higher affinity compared to the wildtype 5c8 Fab
B1 | 9 fold

Target: T2, CD154 on D1.1 cells
Test: cell-based or functional assay

Binder | IC50 (ug/ml), T cell-dependent B cell activation assay
B1 | 0.287 µg/mL
B13 | 0.165 µg/mL
B17 | 0.131 µg/mL

Target: T1, human CD154, soluble antigen
Test: assay not given

Binder | fold higher affinity compared to the wild type
B13 | 25 fold

Target: T1, human CD154, soluble antigen
Test: ELISA-based competitive binding assay; unlabeled Fab against biotin-labeled 5c8 Fab competitor

Binder | ELISA fold-improvement over wildtype
B1 | 5.6 fold
B23 | 0.02 fold
B3 | 5.4 fold
B5 | 2 fold
B8 | 2.6 fold
B24 | 0.01 fold
B9 | 5.2 fold
B11 | 5 fold
B25 | 0.22 fold
B12 | 5.8 fold
B13 | 5.6 fold
B26 | 0.05 fold
B16 | 3.8 fold
B27 | 0.06 fold
B17 | 5.9 fold
B18 | 7 fold
B19 | 2.3 fold
B20 | 8 fold
B28 | 0.13 fold
B22 | 6.3 fold
